The values below come from paper PMC9400459 (Science (New York, N.y.), 2022).

For the assay, the target named is SARS-CoV-2 receptor binding domain (SARS-CoV-2, UniProt P0DTC2). Kind of assay: cell-based or functional assay.

B1: S2K146 human monoclonal antibody (antibody, V domains shown)
VH: QVQLVESGGVVVQPGGSLRLSCAASGFTFHDHTMHWVRQAPGKGLEWVSLITWNGGTIHYSDSVKGRFTISRDNSKNSLYLQMNSLRTEDTALYYCAKDLGRGGWYLPSDAWGQGTLVTVSS
VL: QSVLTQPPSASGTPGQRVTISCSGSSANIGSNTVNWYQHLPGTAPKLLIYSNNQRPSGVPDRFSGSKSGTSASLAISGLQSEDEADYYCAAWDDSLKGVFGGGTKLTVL
Consider B1, for which the “IC50 of neutralisation of authentic SARS-CoV-2 (isolate USA-WA1/2020, lineage A)” value is 10 ng/mL.
